# According to publication PMC7614096, “Head-to-tail polymerization by VEL proteins underpins cold-induced Polycomb silencing in flowering control” (Cell Reports, 2022):
# T1: 6xHisLip-VIN3VEL RR>AD (ITC) (Arabidopsis thaliana, UniProt Q9FIE3 529-603, R554A | R556D)
# T1 construct: VEL domain of VIN3, Arabidopsis thaliana, Q9FIE3, R554A R556D; residues 529-603 by the methods' rule for pLipK-VIN3VEL ('unless specified otherwise'); also called VIN3VEL head mutant; source: E. coli BL21(DE3) pRARE2, purified (Ni-NTA, SEC); not shown: 6xHis, N-terminal, kept; lipoyl (Lip) solubility tag, N-terminal, kept
# T1 sequence (looked up): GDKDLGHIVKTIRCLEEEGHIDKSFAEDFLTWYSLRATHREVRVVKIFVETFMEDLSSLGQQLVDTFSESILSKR
# B1: VIN3VEL RR>AD (R554A R556D), residues 529–603, untagged (domain or fragment, Arabidopsis thaliana, UniProt Q9FIE3 529-603, looked up)
# chain: GDKDLGHIVKTIRCLEEEGHIDKSFAEDFLTWYSLRATHREVRVVKIFVETFMEDLSSLGQQLVDTFSESILSKR
# modifications: selenomethionine (labelling for phasing, crystals); 13C-15N double-labeled (NMR)
# notes: VEL domain of VIN3, Arabidopsis thaliana, Q9FIE3, residues 529-603, R554A R556D; Used for the crystal structure 7O6U and, as 'untagged RR>AD', for NMR; also called VIN3 R554A R556D; VIN3VEL head mutant; source: E. coli BL21(DE3) pRARE2, purified (Ni-NTA, TEV cleavage, SEC); not shown: 6xHis, N-terminal, cleaved
# Key:
# [1] = target: the molecule itself; experiment: crystal structure; untagged VEL domains bearing polymerization-deficient point mutations, 4–25 mg/mL, sitting-drop vapor diffusion at 18°C; SAD with selenomethionine
# [2] = target: the molecule itself; experiment: SEC-MALS; Superdex200 10/300 GL in PBS with 1 mM DTT; increasing protein concentrations (2 mg/mL unless stated otherwise); self-association
# [3] = target: T1, 6xHisLip-VIN3VEL RR>AD (ITC); experiment: ITC; 25°C; 1 mM 6xHisLip-VIN3VEL I575D injected into 100 μM 6xHisLip-VIN3VEL RR>AD; 25 mM Tris pH 7.4, 200 mM NaCl, 0.5 mM DTT, 0.06% NaN3; head-to-tail interface between a head mutant and a tail mutant; settings: both partners purified
# [4] = target: B1; experiment: NMR titration; 300 μM 13C-15N VEL RR>AD with 100 μM unlabeled VEL I575D; peak heights in 1H-15N fast-HSQC spectra; 25 mM phosphate pH 6.7, 150 mM NaCl, 283 K; settings: both partners purified
Binder,binding result [1],stoichiometry N [2],also measured
"VEL1VEL I664D, residues 616–692, untagged (domain or fragment, Arabidopsis thaliana, UniProt Q9SUM4 616-692, looked up, selenomethionine (labelling for phasing), VEL domain of VEL1, Arabidopsis thaliana, Q9SUM4, residues 616-692, I664D; also called VEL1 I664D; source: E. coli BL21(DE3) pRARE2, purified (Ni-NTA, TEV cleavage, SEC); not shown: 6xHis, N-terminal, cleaved) GGTESGLEHCVKIIRQLECSGHIDKNFRQKFLTWYSLRATSQEIRVVKDFIDTFIDDPMALAEQLIDTFDDRVSIKR",binds,,
"Lip-VEL1VEL (residues 589–692), wild type (domain or fragment, Arabidopsis thaliana, UniProt Q9SUM4 589-692, looked up, VEL domain of VEL1, Arabidopsis thaliana, Q9SUM4, residues 589-692; source: E. coli BL21(DE3) pRARE2, purified (Ni-NTA, SEC); not shown: lipoyl (Lip) solubility tag, N-terminal, kept) SDEIKNRQARIEISMKDNCNNGDHSANGGTESGLEHCVKIIRQLECSGHIDKNFRQKFLTWYSLRATSQEIRVVKIFIDTFIDDPMALAEQLIDTFDDRVSIKR",,> 20 -mer,
"6xHisLip-VIN3VEL I575D (ITC) (domain or fragment, Arabidopsis thaliana, UniProt Q9FIE3 529-603, looked up, VEL domain of VIN3, Arabidopsis thaliana, Q9FIE3, I575D; residues 529-603 by the methods' rule for pLipK-VIN3VEL ('unless specified otherwise'); also called VIN3VEL tail mutant; source: E. coli BL21(DE3) pRARE2, purified (Ni-NTA, SEC); not shown: 6xHis, N-terminal, kept; lipoyl (Lip) solubility tag, N-terminal, kept) GDKDLGHIVKTIRCLEEEGHIDKSFRERFLTWYSLRATHREVRVVKDFVETFMEDLSSLGQQLVDTFSESILSKR",,,Kd [3]: 1160 nM
"VIN3VEL I575D, untagged (domain or fragment, Arabidopsis thaliana, UniProt Q9FIE3 529-603, looked up, selenomethionine (labelling for phasing, crystals), VEL domain of VIN3, Arabidopsis thaliana, Q9FIE3, I575D; also called VIN3 I575D; VIN3VEL tail mutant; source: E. coli BL21(DE3) pRARE2, purified (Ni-NTA, TEV cleavage, SEC); not shown: 6xHis, N-terminal, cleaved) GDKDLGHIVKTIRCLEEEGHIDKSFRERFLTWYSLRATHREVRVVKDFVETFMEDLSSLGQQLVDTFSESILSKR",binds,,binding result [4]: binds
B1,binds,,
"Lip-VIN3VEL (residues 500–603), wild type (domain or fragment, Arabidopsis thaliana, UniProt Q9FIE3 500-603, looked up, VEL domain of VIN3, Arabidopsis thaliana, Q9FIE3, residues 500-603; also called WT domain; source: E. coli BL21(DE3) pRARE2, purified (Ni-NTA, SEC); not shown: lipoyl (Lip) solubility tag, N-terminal, kept) GKQGGNKRFKSRTVSLNEKPEINNAANGVGDKDLGHIVKTIRCLEEEGHIDKSFRERFLTWYSLRATHREVRVVKIFVETFMEDLSSLGQQLVDTFSESILSKR",,~9 -mer,
